# Results taken from the supplement of paper PMC6757056.
# ± gives the standard deviation of the averaged measurements.
# B1: library; a variant is named by its letters at N, in order (parent)
# chain: GCUGUCACCGAGAAACUGUGAAGUAUAUCUUAAACCUGGGCACUUAAAAGAUAUAUGGAGUUAGUAGUGCAACCUGCUCGGUCUGAUGAGUCCNNNNNNGGACGAAACAGC
# Assays:
# cyclic di-GMP [1] = variants of: B1; assay: normalized RNA/DNA level without ligand (relative to sTRSVctl = 100) (log10 (% of sTRSVctl)); HEK293T; ligand: cyclic di-GMP (c-di-GMP-II aptamer); higher = less ribozyme self-cleavage, higher mRNA level; settings: reporter: mCherry (pCS4076), ligand present: no
# In short: (§1)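 HEK293T cells received ligand, where used, 1 h before being transfected with 4 µg per 6-well well of library plasmids encoding reporter-linked ribozyme switches. After 72 h, RNA was extracted with EDTA and sequenced. RNA level was derived from RNA reads per DNA read, normalized to a spiked-in non-cleaving sequence or the top sequences, then scaled and log-transformed. Values were ×100 then log10, the top set was 25 sequences, and the minimum was 100 DNA reads.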
# cyclic di-GMP [2] = variants of: B1; assay: normalized RNA/DNA level with ligand (relative to sTRSVctl = 100) (log10 (% of sTRSVctl)); HEK293T; ligand: cyclic di-GMP (c-di-GMP-II aptamer); ligand concentration (+) RNA-Seq: 1 mM; higher = less ribozyme self-cleavage, higher mRNA level; settings: reporter: mCherry (pCS4076), ligand present: yes
# In short: as §1
Variant,normalized RNA/DNA level without ligand (log10) (cyclic di-GMP [1]),normalized RNA/DNA level with ligand (log10) (cyclic di-GMP [2])
GCUGUCACCGAGAAACUGUGAAGUAUAUCUUAAACCUGGGCACUUAAAAGAUAUAUGGAGUUAGUAGUGCAACCUGCUCGGUCUGAUGAGUCCUGGGACGGACGAAACAGC,1.697 ± 0.01,1.84 ± 0.078
GCUGUCACCGAGAAACUGUGAAGUAUAUCUUAAACCUGGGCACUUAAAAGAUAUAUGGAGUUAGUAGUGCAACCUGCUCGGUCUGAUGAGUCCUCUCCGGGACGAAACAGC,1.839 ± 0.0029,1.94 ± 0.099
GCUGUCACCGAGAAACUGUGAAGUAUAUCUUAAACCUGGGCACUUAAAAGAUAUAUGGAGUUAGUAGUGCAACCUGCUCGGUCUGAUGAGUCCCAGUCUGGACGAAACAGC,1.52 ± 0.048,1.68 ± 0.12
GCUGUCACCGAGAAACUGUGAAGUAUAUCUUAAACCUGGGCACUUAAAAGAUAUAUGGAGUUAGUAGUGCAACCUGCUCGGUCUGAUGAGUCCCUUUUGGGACGAAACAGC,1.796 ± 0.016,1.92 ± 0.13
GCUGUCACCGAGAAACUGUGAAGUAUAUCUUAAACCUGGGCACUUAAAAGAUAUAUGGAGUUAGUAGUGCAACCUGCUCGGUCUGAUGAGUCCACUAGAGGACGAAACAGC,1.41 ± 0.066,1.64 ± 0.12
GCUGUCACCGAGAAACUGUGAAGUAUAUCUUAAACCUGGGCACUUAAAAGAUAUAUGGAGUUAGUAGUGCAACCUGCUCGGUCUGAUGAGUCCUACUACGGACGAAACAGC,1.75 ± 0.037,1.87 ± 0.08
GCUGUCACCGAGAAACUGUGAAGUAUAUCUUAAACCUGGGCACUUAAAAGAUAUAUGGAGUUAGUAGUGCAACCUGCUCGGUCUGAUGAGUCCUUCCGAGGACGAAACAGC,1.79 ± 0.045,1.92 ± 0.12
GCUGUCACCGAGAAACUGUGAAGUAUAUCUUAAACCUGGGCACUUAAAAGAUAUAUGGAGUUAGUAGUGCAACCUGCUCGGUCUGAUGAGUCCGCCUAAGGACGAAACAGC,1.59 ± 0.071,1.78 ± 0.055
GCUGUCACCGAGAAACUGUGAAGUAUAUCUUAAACCUGGGCACUUAAAAGAUAUAUGGAGUUAGUAGUGCAACCUGCUCGGUCUGAUGAGUCCACAGGAGGACGAAACAGC,1.3 ± 0.067,1.41 ± 0.16
GCUGUCACCGAGAAACUGUGAAGUAUAUCUUAAACCUGGGCACUUAAAAGAUAUAUGGAGUUAGUAGUGCAACCUGCUCGGUCUGAUGAGUCCCCUACUGGACGAAACAGC,1.581 ± 0.011,1.76 ± 0.12
GCUGUCACCGAGAAACUGUGAAGUAUAUCUUAAACCUGGGCACUUAAAAGAUAUAUGGAGUUAGUAGUGCAACCUGCUCGGUCUGAUGAGUCCUGCCUUGGACGAAACAGC,1.725 ± 0.0025,1.87 ± 0.082
GCUGUCACCGAGAAACUGUGAAGUAUAUCUUAAACCUGGGCACUUAAAAGAUAUAUGGAGUUAGUAGUGCAACCUGCUCGGUCUGAUGAGUCCAAUAUCGGACGAAACAGC,1.67 ± 0.022,1.81 ± 0.079
GCUGUCACCGAGAAACUGUGAAGUAUAUCUUAAACCUGGGCACUUAAAAGAUAUAUGGAGUUAGUAGUGCAACCUGCUCGGUCUGAUGAGUCCUCGACAGGACGAAACAGC,1.619 ± 0.0042,1.77 ± 0.12
GCUGUCACCGAGAAACUGUGAAGUAUAUCUUAAACCUGGGCACUUAAAAGAUAUAUGGAGUUAGUAGUGCAACCUGCUCGGUCUGAUGAGUCCAUGCGGGGACGAAACAGC,1.74 ± 0.024,1.82 ± 0.098
GCUGUCACCGAGAAACUGUGAAGUAUAUCUUAAACCUGGGCACUUAAAAGAUAUAUGGAGUUAGUAGUGCAACCUGCUCGGUCUGAUGAGUCCUGAGAUGGACGAAACAGC,1.608 ± 0.0039,1.78 ± 0.11
GCUGUCACCGAGAAACUGUGAAGUAUAUCUUAAACCUGGGCACUUAAAAGAUAUAUGGAGUUAGUAGUGCAACCUGCUCGGUCUGAUGAGUCCGGGCUCGGACGAAACAGC,1.88 ± 0.051,1.98 ± 0.042
GCUGUCACCGAGAAACUGUGAAGUAUAUCUUAAACCUGGGCACUUAAAAGAUAUAUGGAGUUAGUAGUGCAACCUGCUCGGUCUGAUGAGUCCUGGCGCGGACGAAACAGC,1.818 ± 0.018,1.9 ± 0.14
GCUGUCACCGAGAAACUGUGAAGUAUAUCUUAAACCUGGGCACUUAAAAGAUAUAUGGAGUUAGUAGUGCAACCUGCUCGGUCUGAUGAGUCCUACACCGGACGAAACAGC,1.6664 ± 0.0013,1.8 ± 0.1
GCUGUCACCGAGAAACUGUGAAGUAUAUCUUAAACCUGGGCACUUAAAAGAUAUAUGGAGUUAGUAGUGCAACCUGCUCGGUCUGAUGAGUCCAUUUUAGGACGAAACAGC,1.62 ± 0.032,1.8 ± 0.13
GCUGUCACCGAGAAACUGUGAAGUAUAUCUUAAACCUGGGCACUUAAAAGAUAUAUGGAGUUAGUAGUGCAACCUGCUCGGUCUGAUGAGUCCAUGUGCGGACGAAACAGC,1.6033 ± 0.00051,1.77 ± 0.14
GCUGUCACCGAGAAACUGUGAAGUAUAUCUUAAACCUGGGCACUUAAAAGAUAUAUGGAGUUAGUAGUGCAACCUGCUCGGUCUGAUGAGUCCUAUGCGGGACGAAACAGC,1.78 ± 0.029,1.86 ± 0.1
GCUGUCACCGAGAAACUGUGAAGUAUAUCUUAAACCUGGGCACUUAAAAGAUAUAUGGAGUUAGUAGUGCAACCUGCUCGGUCUGAUGAGUCCGUGCCCGGACGAAACAGC,1.782 ± 0.016,1.84 ± 0.099
GCUGUCACCGAGAAACUGUGAAGUAUAUCUUAAACCUGGGCACUUAAAAGAUAUAUGGAGUUAGUAGUGCAACCUGCUCGGUCUGAUGAGUCCAACCUAGGACGAAACAGC,1.51 ± 0.041,1.71 ± 0.13
GCUGUCACCGAGAAACUGUGAAGUAUAUCUUAAACCUGGGCACUUAAAAGAUAUAUGGAGUUAGUAGUGCAACCUGCUCGGUCUGAUGAGUCCUUGCCGGGACGAAACAGC,1.83 ± 0.058,1.91 ± 0.12
GCUGUCACCGAGAAACUGUGAAGUAUAUCUUAAACCUGGGCACUUAAAAGAUAUAUGGAGUUAGUAGUGCAACCUGCUCGGUCUGAUGAGUCCCCGGGCGGACGAAACAGC,1.821 ± 0.013,1.93 ± 0.12
GCUGUCACCGAGAAACUGUGAAGUAUAUCUUAAACCUGGGCACUUAAAAGAUAUAUGGAGUUAGUAGUGCAACCUGCUCGGUCUGAUGAGUCCGGAUCCGGACGAAACAGC,1.86 ± 0.058,1.93 ± 0.055
